Assay results reported in US20200362047A1 (CRESCENDO BIOLOGICS, published 2020).

T1: rhesus CD137Fc recombinant protein (Sino Biologicals cat no. 90847-K02H) (rhesus; human, UniProt H9Z8K9 24-186)
T1 construct: Bought protein; also called rhesus CD137-human IgG1 Fc tagged protein; not shown: human IgG1 Fc tag
T1 sequence: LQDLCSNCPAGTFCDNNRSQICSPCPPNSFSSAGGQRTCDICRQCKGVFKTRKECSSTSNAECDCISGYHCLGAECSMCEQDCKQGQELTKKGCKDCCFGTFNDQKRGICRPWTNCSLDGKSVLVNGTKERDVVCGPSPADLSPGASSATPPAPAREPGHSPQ


Columns and labels:
[1] = target: T2, human PSMA expressed on cells (human, UniProt Q04609 1-750); test: FMAT, DU145 PSMA cells
T2 construct: One molecule for both cell lines (CHO human PSMA, DU145 PSMA); the cell line stands under assay; also called CHO human PSMA; CHO PSMA
Procedure: (§1) Binding of His-tagged molecules to CHO human CD137, CHO parent, CHO human PSMA, DU145 PSMA and DU145 parent cells was assessed using Fluorescence Microvolume Assay Technology (FMAT). All reagents were prepared in FMAT assay buffer (pH 7.4) containing PBS, 0.1% Bovine Serum Albumin, 0.05% Sodium Azide. Serially diluted samples were transferred into 384 well black clear-bottomed assay plates (Costar cat. no. 3655) and incubated for a minimum of 2 hours at room temperature with 1.5 nM Anti-His (Millipore cat. no. 05-949), […] Goat Anti-Mouse Alexa Fluor-488 (Jackson ImmunoResearch cat. no. 115-545-071) and 2000 cells/well pre-stained with DRAQ5 (Thermo Scientific cat. no. 62251). Fluorescence emission was then measured on the TTP Mirrorball plate reader in the FL2 (502 nm-537 nm) and FL5 (677-800 nm) channels following excitation at 488 nm and 640 nm. Data was gated on FL5 perimeter and peak intensity and the FL2 median mean fluorescence intensity of the gated data used for determination of VH binding. Monovalent CD137 specific Humabody® VH, bispecific and trispecific molecules with a CD137 binding arm bound to CHO CD137 expressing cells. Monovalent PSMA specific Humabody® VH, bispecific and trispecific molecules with a PSMA binding arm bound to PSMA expressing cells.

[2] = target: T2, human PSMA expressed on cells; test: FMAT, CHO human PSMA cells
Procedure: as §1

[3] = target: T3, PSMA-his (R&D Systems cat no. 4234-ZN) (human, UniProt Q04609 44-750); test: BLI (Octet RED384), PSMA-his amine-coupled to AR2G sensors, 1:1 model
T3 construct: Bought protein; also called Human PSMA; not shown: His tag
Procedure: (§2) The kinetics of monovalent and bispecific Humabody VH were determined on a ForteBio Octet RED 384 instrument. To study the interaction with the antigens, CD137-Fc tag protein (Acro Biosystems cat no. 41B-H5258) or PSMA-his (R&D Systems cat no. 4234-ZN) was immobilised onto AR2G biosensors (ForteBio cat no. 18-5082) by amine coupling. Monovalent VH and bispecific molecules were serially diluted (typically 1:2 dilution series starting between 12-25 nM, at the highest concentration) in kinetics buffer (0.1% BSA, 0.02% Tween, 1×PBS) and binding to the immobilised proteins was studied during the association and dissociation phases. PSMA binding was measured using 180 seconds association and 600 seconds dissociation phases. CD137 binding was measured 180 seconds association and 600 seconds dissociation phases. Reference subtracted data were fitted to a 1:1 binding model using the ForteBio Octet Data Analysis software.

[4] = target: T4, human CD137 expressed on the surface of CHO cells (human, UniProt Q07011 24-255); test: FMAT, CHO human CD137 cells
T4 construct: Also used for the Jurkat reporter cells that express human CD137 (functional rows); also called CHO human CD137 cells; CHO huCD137
Procedure: as §1

[5] = target: T4, human CD137 expressed on the surface of …; test: FMAT ligand inhibition, CD137 Ligand on CHO human CD137 cells
Procedure: In parallel to the binding assay, periplasmic extracts were tested for their ability to inhibit the interaction of human CD137 ligand protein with CHO human CD137 cells in an FMAT format. Total binding controls containing diluted periplasmic extract sample buffer and non-specific binding controls containing excess non-Fc tagged competitor were set up on each plate for data normalisation. Fluorescence signal was measured using the TTP Mirrorball and the FL2 median mean fluorescence intensity of gated used for the data normalisation. The data was expressed as a % of the total binding control (% control) after subtraction of the background signal determined from the non-specific binding control wells.
The ability of purified Humabody VH to inhibit the binding of CD137 Ligand to CHO human CD137 cells was measured in the FMAT ligand inhibition assay essentially as described in Example 6. VH inhibited the binding of human CD137 Ligand to human CD137.

[6] = target: T5, human CD137-human Fc chimeric protein (Acro Biosystems cat no. 41B-H5258) (human, UniProt Q07011 24-186); test: SPR (Biacore T200), single cycle kinetics, CD137-Fc captured on Protein G chip, mean ± SD; human CD137Fc
T5 construct: Bought protein; The Octet Protein G and Biacore experiments name no catalogue number; also called human CD137Fc recombinant protein; human CD137-Fc recombinant protein; not shown: human IgG1 Fc tag
Procedure: (§3) The Biacore T200 instrument was used to study the interaction between VH with human and rhesus CD137-human IgG1 Fc tagged protein by surface plasmon resonance (SPR). Single cycle kinetics assays used to evaluate the kinetics and affinity of the interaction. Experiments were performed at 25° C. in HBS-EP+ assay buffer with a flow rate of 30 μl/minute. A Protein G chip was used to capture the Fc tagged recombinant CD137 diluted to 2 μg/ml to one of the flow cells over 7 seconds. A second flow cell without any captured CD137 was used as the reference cell. A five point, three-fold dilution series of VH was made with a top concentration of 60 nM. The binding kinetics were followed by flowing these over the chip surface. The contact time for each of the binding steps was 180 seconds and the dissociation step was 1800 and 3600 seconds for rhesus and human CD137 respectively. After each run, the sensors were regenerated with glycine pH 1.5 to remove the captured CD137. The data was fitted to a 1:1 binding model after double reference subtraction using the Biacore T200 Evaluation software.

[7] = target: T1, rhesus CD137Fc recombinant protein …; test: SPR (Biacore T200), single cycle kinetics, rhesus CD137-Fc captured on Protein G chip, mean ± SD; rhesus CD137Fc
Procedure: as §3

[8] = target: T5, human CD137-human Fc chimeric protein …; test: BLI (Octet RED384), CD137-Fc amine-coupled to AR2G sensors, 1:1 model
Procedure: as §2

[9] = target: T6, CD137 on pre-stimulated human CD8+ T cells (human, UniProt Q07011 24-255); test: flow cytometry, PMA/ionomycin-stimulated human CD8+ T cells, mean of 2-3 donors
T6 construct: also called pre-stimulated CD8+ cells; primary T cells
Procedure: Binding to primary T cells was measured using flow cytometry. Peripheral blood mononuclear cells (PBMCs) were isolated from human blood by density gradient centrifugation then CD8+ T cells purified using a negative selection isolation kit according to the manufacturer's protocol (Miltenyi Biotech cat no 130-042-401). T-cells were stimulated PMA/Ionomycin for 48-72 hours in RPMI media supplemented with 10% FBS, 2 mM Glutamine, 1× Pen/Strep. Cells were transferred into 96 well plates, blocked for 10 mins with staining buffer (PBS/1% BSA/0.05% Sodium Azide) then incubated with serially diluted VH in staining buffer (PBS/1% BSA) for 30 mins-1 hour at 4° C. Cells were washed by centrifugation then VH binding detected using Anti His antibody (Millipore 05-949) and Goat Anti Mouse Alexa Fluor-488 (Jackson ImmunoResearch cat no. 115-545-071). A Live Dead near IR stain (Molecular Probes cat no. L10119) was used for discrimination of live cells. After further washing cells were fixed and fluorescence measured by flow cytometry.

[10] = target: T2, human PSMA expressed on cells; test: dual binding cell ELISA: the titrated step is the binding of the bispecific to CHO human PSMA cells; readout is bound CD137huFc (fixed 1 nM) with anti human Fc-HRP, so the value reflects dual engagement
Procedure: Dual target engagement of CD137 and PSMA by the bispecific molecules was assessed using an ELISA format. CHO-PSMA cells (20000/well) were seeded into 96 well plates (Greiner cat no. 353872) in Hams F12 supplemented with L-Glutamine+Blasticidin+Tetracycline and incubated at 37° C. with 5% CO₂ overnight. All subsequent steps were performed at room temperature and included washes with PBS between each step. Plates were blocked with PBS/0.1% BSA for 1 hour then serially diluted Humabody® VH were added and allowed to bind for 1 hour. Following removal of unbound VH, 1 nM CD137huFc (Acro Biosystems cat no. 41B-H5258) was added to the wells and incubated for 1 hour. A 1:3000 dilution of Anti-huFc-HRP (Jackson ImmunoResearch cat no. 109-035-098) was subsequently added for 1 hour and plates developed by addition of TMB. The reaction was stopped by addition of 0.5M sulphuric acid and plates read on BMG PheraStar at Absorbance 450 nm.

T2 sequence (Q04609 whole entry): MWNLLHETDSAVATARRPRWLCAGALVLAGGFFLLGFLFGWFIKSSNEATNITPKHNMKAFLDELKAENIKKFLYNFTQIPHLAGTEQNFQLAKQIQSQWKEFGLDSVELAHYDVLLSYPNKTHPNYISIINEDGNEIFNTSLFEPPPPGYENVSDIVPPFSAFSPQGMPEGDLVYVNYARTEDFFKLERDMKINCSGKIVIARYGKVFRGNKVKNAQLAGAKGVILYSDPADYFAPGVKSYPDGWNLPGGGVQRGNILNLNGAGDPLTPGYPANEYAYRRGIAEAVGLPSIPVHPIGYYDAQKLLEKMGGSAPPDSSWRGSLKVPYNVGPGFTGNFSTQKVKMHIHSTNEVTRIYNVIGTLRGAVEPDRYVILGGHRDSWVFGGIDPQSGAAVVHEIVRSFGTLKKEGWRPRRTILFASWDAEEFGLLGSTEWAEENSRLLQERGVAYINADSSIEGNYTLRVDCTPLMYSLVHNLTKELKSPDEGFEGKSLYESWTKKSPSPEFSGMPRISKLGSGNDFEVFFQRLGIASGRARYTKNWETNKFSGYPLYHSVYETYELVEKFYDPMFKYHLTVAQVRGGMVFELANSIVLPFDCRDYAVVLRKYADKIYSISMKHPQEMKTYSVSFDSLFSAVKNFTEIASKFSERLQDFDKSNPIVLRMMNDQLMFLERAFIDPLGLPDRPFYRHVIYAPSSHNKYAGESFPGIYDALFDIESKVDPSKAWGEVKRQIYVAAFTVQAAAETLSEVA
T4 sequence (Q07011 24-255 limits assumed): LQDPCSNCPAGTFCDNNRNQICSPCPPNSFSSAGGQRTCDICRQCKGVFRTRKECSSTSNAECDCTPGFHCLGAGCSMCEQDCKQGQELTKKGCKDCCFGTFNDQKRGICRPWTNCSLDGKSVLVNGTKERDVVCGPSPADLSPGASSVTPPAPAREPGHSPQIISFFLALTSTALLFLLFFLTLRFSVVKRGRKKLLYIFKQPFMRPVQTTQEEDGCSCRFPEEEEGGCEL
T3 sequence (Q04609 44-750 limits assumed): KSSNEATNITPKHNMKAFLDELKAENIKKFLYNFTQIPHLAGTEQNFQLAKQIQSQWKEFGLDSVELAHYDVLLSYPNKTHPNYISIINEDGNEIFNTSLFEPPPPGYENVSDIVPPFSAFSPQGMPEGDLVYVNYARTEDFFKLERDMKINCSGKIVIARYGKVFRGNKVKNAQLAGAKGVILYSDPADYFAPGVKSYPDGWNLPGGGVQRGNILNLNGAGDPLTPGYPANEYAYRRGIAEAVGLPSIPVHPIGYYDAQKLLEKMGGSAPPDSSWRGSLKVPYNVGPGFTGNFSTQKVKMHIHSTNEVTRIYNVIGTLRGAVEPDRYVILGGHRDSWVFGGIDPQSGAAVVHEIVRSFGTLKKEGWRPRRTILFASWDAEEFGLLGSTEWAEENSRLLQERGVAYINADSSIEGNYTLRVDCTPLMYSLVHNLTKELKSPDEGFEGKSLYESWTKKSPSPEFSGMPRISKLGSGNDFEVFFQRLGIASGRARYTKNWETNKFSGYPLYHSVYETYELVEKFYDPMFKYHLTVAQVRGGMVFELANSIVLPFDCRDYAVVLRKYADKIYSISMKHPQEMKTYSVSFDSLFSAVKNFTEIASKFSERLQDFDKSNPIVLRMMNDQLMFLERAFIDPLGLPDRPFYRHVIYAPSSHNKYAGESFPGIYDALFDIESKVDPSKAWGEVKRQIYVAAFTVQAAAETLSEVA
T6 sequence (Q07011 24-255 limits assumed): as the sequence (Q07011 24-255 limits assumed) above

| Binder | EC50 [1] [nM] | EC50 [2] [nM] | Kd [3] [nM] | koff [3] [s⁻¹] | kon [3] [M⁻¹ s⁻¹] | EC50 [4] [nM] | IC50 [5] [nM] | Kd [6] [nM] | koff [6] [s⁻¹] | kon [6] [M⁻¹ s⁻¹] | Kd [7] [nM] | koff [7] [s⁻¹] | kon [7] [M⁻¹ s⁻¹] | Kd [8] [nM] | koff [8] [s⁻¹] | kon [8] [M⁻¹ s⁻¹] | EC50 [9] [nM] | EC50 (read off the curve) [10] [nM] |
| --- | --- | --- | --- | --- | --- | --- | --- | --- | --- | --- | --- | --- | --- | --- | --- | --- | --- | --- |
| 4.1(PSMA-binding VH)-6GS-2.1 (bispecific antibody, tandem VH, PSMA x CD137; also called 4.1-6GS-2.1; not shown: His tag) EVQLVESGGGVVQPGRSLRLSCAASGFSFSGYGMHWVRQAPGKGLEWVAYISYDGSNKYYADSVKGRFTISRDNSKNTLYLQMNSLRAEDTAVYYCAKDPAWGLRLGESSSYDFDIWGQGTMVTVSSGGGGSGGGGSGGGGSGGGGSGGGGSGGGGSEVQLVESGGGLVKPGGSLRVSCAASGFTFSDYYMSWFRQAPGKGLEWVSYISGSGDIIDYADSVKGRFTISRDNAKNSLYLQMNNLRAEDTAVYHCAREDSRLTGTTDFDNWGQGTLVTVSS | 0.39 | 0.28 | 0.66 | 0.00033 | 500000 | 0.97 | 13 | – | – | – | – | – | – | 4.8 | 0.0026 | 580000 | 3 | ~1 |
| 4.1(PSMA-binding VH)-6GS-1.1 (bispecific antibody, tandem VH, PSMA x CD137; also called 4.1-6GS-1.1; not shown: His tag) EVQLVESGGGVVQPGRSLRLSCAASGFSFSGYGMHWVRQAPGKGLEWVAYISYDGSNKYYADSVKGRFTISRDNSKNTLYLQMNSLRAEDTAVYYCAKDPAWGLRLGESSSYDFDIWGQGTMVTVSSGGGGSGGGGSGGGGSGGGGSGGGGSGGGGSEVQLVESGGGLVQPGGSLRLSCAASGFTFSSHWMTWFRQAPGKGLEWVAHIKEDGSEKYYEDSVEGRFTVSRDNAKNSVYLQMNSLRAEDTAVYYCARGGDGYSDSHFGVDVWGQGTTVTVSS | 0.21 | 0.19 | 1.3 | 0.00054 | 430000 | 0.43 | 2.5 | – | – | – | – | – | – | 0.73 | 0.00031 | 410000 | 0.73 | ~0.8 |

Further lines, results first:

| EC50 [1] [nM] | EC50 [2] [nM] | Kd [3] [nM] | koff [3] [s⁻¹] | kon [3] [M⁻¹ s⁻¹] | EC50 [4] [nM] | IC50 [5] [nM] | Kd [6] [nM] | koff [6] [s⁻¹] | kon [6] [M⁻¹ s⁻¹] | Kd [7] [nM] | koff [7] [s⁻¹] | kon [7] [M⁻¹ s⁻¹] | Kd [8] [nM] | koff [8] [s⁻¹] | kon [8] [M⁻¹ s⁻¹] | EC50 [9] [nM] | EC50 (read off the curve) [10] [nM] | Binder |
| --- | --- | --- | --- | --- | --- | --- | --- | --- | --- | --- | --- | --- | --- | --- | --- | --- | --- | --- |
| 0.19 | 0.17 | 0.53 | 0.00016 | 310000 | – | – | – | – | – | – | – | – | – | – | – | – | – | PSMA binding single VH domain antibody 4.1 (VHH, human single VH domain, PSMA specific) VHH: EVQLVESGGGVVQPGRSLRLSCAASGFSFSGYGMHWVRQAPGKGLEWVAYISYDGSNKYYADSVKGRFTISRDNSKNTLYLQMNSLRAEDTAVYYCAKDPAWGLRLGESSSYDFDIWGQGTMVTVSS |
| – | – | – | – | – | 0.09 | 0.73 | 0.085 | 0.0003 | 3.6e+06 | 0.27 | 0.00028 | 1.1e+06 | – | – | – | – | – | Humabody VH 1.113 (VHH, human single VH domain) VH: EVQLVESGGGLVQPGGSLRLSCAASGFTLSNYWMNWVRQAPGKGLEWVANINQDGSERYYVDSVKGRFTISRDNAKNSLYLQMNSLRAEDTAVYYCARGGEGYGVDHYGLDVSGQGTTVTVSSHHHHHH |
| 0.36 | 0.32 | – | – | – | 0.58 | – | – | – | – | – | – | – | – | – | – | – | – | 4.1-6GS-1.1-6GS-VH (MSA) (bispecific antibody, trispecific tandem VH (PSMA, CD137, mouse serum albumin); also called 4.1-6GS-1.1-VH (MSA); 4.1-6GS-1.1-6GS-MSA; not shown: His tag) EVQLVESGGGVVQPGRSLRLSCAASGFSFSGYGMHWVRQAPGKGLEWVAYISYDGSNKYYADSVKGRFTISRDNSKNTLYLQMNSLRAEDTAVYYCAKDPAWGLRLGESSSYDFDIWGQGTMVTVSSGGGGSGGGGSGGGGSGGGGSGGGGSGGGGSEVQLVESGGGLVQPGGSLRLSCAASGFTFSSHWMTWFRQAPGKGLEWVAHIKEDGSEKYYEDSVEGRFTVSRDNAKNSVYLQMNSLRAEDTAVYYCARGGDGYSDSHFGVDVWGQGTTVTVSSGGGGSGGGGSGGGGSGGGGSGGGGSGGGGSQVQLVESGGGLVQPGGSLRLSCAASGFTFSSYAMSWVRQAPGKGLEWVATISDSGSSADYADSVKGRFTISRDNSKNTLYLQMNSLRAEDTAVYYCARGRYNWNPRALGIWGQGTMVTVSS |
